Experimental data from publication PMC10681739, “High-throughput data and modeling reveal insights into the mechanisms of cooperative DNA-binding by transcription factor proteins”.

Each binder was assayed against ETS1:RUNX1 (Homo sapiens, UniProt P14921;Q01196 full;full) (assay: gcPBM; 1 nM ETS1 + 25 nM RUNX1, anti-ETS1 signal, normalised). Settings: tags: N-terminal GST (pDEST15), kept (PMC6008103); copies: 1;1; label: surface-attached array probe.
Sequence of ETS1:RUNX1 (P14921 whole entry, chain 1 of 2): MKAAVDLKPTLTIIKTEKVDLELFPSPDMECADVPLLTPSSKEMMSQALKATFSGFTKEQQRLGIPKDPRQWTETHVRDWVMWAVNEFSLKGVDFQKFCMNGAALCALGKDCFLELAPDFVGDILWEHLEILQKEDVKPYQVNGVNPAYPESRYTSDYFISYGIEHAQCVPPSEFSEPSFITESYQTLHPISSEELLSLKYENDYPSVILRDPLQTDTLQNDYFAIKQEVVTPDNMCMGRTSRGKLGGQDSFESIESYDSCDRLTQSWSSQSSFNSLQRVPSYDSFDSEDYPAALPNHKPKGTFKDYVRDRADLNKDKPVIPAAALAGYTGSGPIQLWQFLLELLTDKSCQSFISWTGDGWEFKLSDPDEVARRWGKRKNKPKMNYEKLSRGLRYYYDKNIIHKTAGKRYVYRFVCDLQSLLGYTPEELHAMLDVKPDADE
Sequence of ETS1:RUNX1 (Q01196 whole entry, chain 2 of 2): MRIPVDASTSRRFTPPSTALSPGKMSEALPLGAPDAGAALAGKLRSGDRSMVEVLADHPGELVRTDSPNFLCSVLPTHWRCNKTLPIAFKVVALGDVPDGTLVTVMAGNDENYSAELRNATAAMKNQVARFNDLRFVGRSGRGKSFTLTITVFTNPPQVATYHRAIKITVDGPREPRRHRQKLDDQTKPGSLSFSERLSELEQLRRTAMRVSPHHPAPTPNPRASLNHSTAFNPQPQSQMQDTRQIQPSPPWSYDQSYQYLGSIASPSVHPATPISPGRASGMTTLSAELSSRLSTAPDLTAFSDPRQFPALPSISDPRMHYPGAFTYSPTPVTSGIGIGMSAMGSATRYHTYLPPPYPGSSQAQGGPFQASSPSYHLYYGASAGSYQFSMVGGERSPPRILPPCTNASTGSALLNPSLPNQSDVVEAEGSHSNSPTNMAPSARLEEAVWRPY

Binder | binding signal
Table S2 A row 513 (dsDNA) DNA 1: AGGACGGGCGGAAGTGGCTGCGGTGGATGGTGGGAG DNA 2: CTCCCACCATCCACCGCAGCCACTTCCGCCCGTCCT | 14100 PBM fluorescence, median of replicate spots
Table S2 A row 966 (dsDNA) DNA 1: GGCCTTCATTACACAGGATGCGGTTGAAATGCATCA DNA 2: TGATGCATTTCAACCGCATCCTGTGTAATGAAGGCC | 18400 PBM fluorescence, median of replicate spots
Table S2 A row 647 (dsDNA) DNA 1: CCCAGCCCTGCTGCCGGATGTGGTGAGGCCCAGGTG DNA 2: CACCTGGGCCTCACCACATCCGGCAGCAGGGCTGGG | 13200 PBM fluorescence, median of replicate spots
Table S2 A row 483 (dsDNA) DNA 1: AACCAAACAGCCACAGGAAGTGGTTTCTGTGATTCA DNA 2: TGAATCACAGAAACCACTTCCTGTGGCTGTTTGGTT | 16800 PBM fluorescence, median of replicate spots
Table S2 A row 397 (dsDNA) DNA 1: AGGGGAGGAACCAGGAAGTTGTGGTAAACTGTAGCA DNA 2: TGCTACAGTTTACCACAACTTCCTGGTTCCTCCCCT | 15800 PBM fluorescence, median of replicate spots
Table S2 A row 1753 (dsDNA) DNA 1: TGAAGCAGGCGGAAGTGCTGTGGTTTCTGGCGACTG DNA 2: CAGTCGCCAGAAACCACAGCACTTCCGCCTGCTTCA | 15300 PBM fluorescence, median of replicate spots
Table S2 A row 435 (dsDNA) DNA 1: GACACAAGAACAGCAGGATGTGGTCAGAGGCGTCGT DNA 2: ACGACGCCTCTGACCACATCCTGCTGTTCTTGTGTC | 17700 PBM fluorescence, median of replicate spots
Table S2 A row 338 (dsDNA) DNA 1: GCCCAGGGCGGCCGGAAGTTTGCGGGGCGGGGCGGA DNA 2: TCCGCCCCGCCCCGCAAACTTCCGGCCGCCCTGGGC | 16100 PBM fluorescence, median of replicate spots
Table S2 A row 271 (dsDNA) DNA 1: CACCCCCCCAGTGCAGGAAGTGGTTTTCGAGGGCAG DNA 2: CTGCCCTCGAAAACCACTTCCTGCACTGGGGGGGTG | 14300 PBM fluorescence, median of replicate spots
Table S2 A row 223 (dsDNA) DNA 1: AGGGAACAGGAAATGCAAAAAACCACAAGGGACAAG DNA 2: CTTGTCCCTTGTGGTTTTTTGCATTTCCTGTTCCCT | 18100 PBM fluorescence, median of replicate spots
Table S2 A row 649 (dsDNA) DNA 1: TCTGTCGTCCCACTTCCTGCTGCGGTTTCCACCTCG DNA 2: CGAGGTGGAAACCGCAGCAGGAAGTGGGACGACAGA | 14900 PBM fluorescence, median of replicate spots
Table S2 A row 553 (dsDNA) DNA 1: CCTTGCAGCAACGGATGTGGGTTTTTTTTTTTCTTT DNA 2: AAAGAAAAAAAAAAACCCACATCCGTTGCTGCAAGG | 17200 PBM fluorescence, median of replicate spots
Table S2 A row 895 (dsDNA) DNA 1: TCAAGTTTGGTAACAGGATGTGGTAGGAGGAACACA DNA 2: TGTGTTCCTCCTACCACATCCTGTTACCAAACTTGA | 13400 PBM fluorescence, median of replicate spots
Table S2 A row 1142 (dsDNA) DNA 1: ACAATAACAGGAAGTGGTGGGGACTGCGGTGACCTG DNA 2: CAGGTCACCGCAGTCCCCACCACTTCCTGTTATTGT | 16500 PBM fluorescence, median of replicate spots
Table S2 A row 1263 (dsDNA) DNA 1: TCACATTTTGCCGGATGTGGGTTGAGGGCATGCTGC DNA 2: GCAGCATGCCCTCAACCCACATCCGGCAAAATGTGA | 14600 PBM fluorescence, median of replicate spots
Table S2 A row 462 (dsDNA) DNA 1: TTCAACAGGATGTGGGAACTTGACTCTCGCCGCAAA DNA 2: TTTGCGGCGAGAGTCAAGTTCCCACATCCTGTTGAA | 13800 PBM fluorescence, median of replicate spots
Table S2 A row 1210 (dsDNA) DNA 1: CGGGAGGGGCAGGAAGCGGACTGCGGTGGGGAAGGG DNA 2: CCCTTCCCCACCGCAGTCCGCTTCCTGCCCCTCCCG | 16400 PBM fluorescence, median of replicate spots
Table S2 A row 930 (dsDNA) DNA 1: AGCTCCACCGGAAACGGCCTGGCCGCAGCCAATCAG DNA 2: CTGATTGGCTGCGGCCAGGCCGTTTCCGGTGGAGCT | 16700 PBM fluorescence, median of replicate spots
